From patent US11427637B2, “Methods of treating PD-L1 expressing cancer” (Mayo Foundation for Medical Education and Research, priority 2016, dated 2022)
pKd: −log10 of the molar value.

Legend:
ABX = biological target: T1, ABX (Homo sapiens, UniProt P02768); test: Biolayer interferometry (BLItz) binding of atezolizumab to ABX; details: biotinylated atezolizumab on streptavidin probe; ABX 100, 500, 1000 μg/mL in 1×PBS; read-out: Kd (binding affinity between atezolizumab and ABX)
T1 construct: purchased Celgene Corp
Protocol: To determine whether atezolizumab and ABX are capable of interacting to form nanoparticle complexes, Biolayer interferometry (BLItz) (Forte Bioscience) was performed using streptavidin probes. 100 ug/ml of biotinylated atezolizumab in 1×PBS was bound to the streptavidin probe. After washing unbound atezolizumab from the probe, the antibody-bound probe was exposed to ABX at concentrations of 100, 500, 1000 μg/mL in 1×PBS. An antibody probe exposed to PBS was used as background and background was subtracted. BLItz software was used to calculate dissociation constants (FIG. 1).

[1] = system: PD-L1 positive C8161 melanoma tumor cells; test: In vivo efficacy, C8161 melanoma tumors in athymic nude mice; details: one IV tail vein injection; atezolizumab 18 mg/kg, ABX 45 mg/kg, AA130 = 18 mg/kg atezolizumab and 45 mg/kg ABX
Protocol: Athymic nude mice (Harlan Sprague Dawley) were injected with 2×10^6 PD-L1 positive C8161 melanoma tumor cells. The tumors were allowed to grow until about 600 mm^3 and were treated by 100 μl IV tail vein injection with saline, atezolizumab alone (18 mg/kg), ABX alone (45 mg/kg) and AA130 (18 mg/kg atezolizumab and 45 mg/kg ABX) one time (FIGS. 5A-5D). Tumor growth was monitored 3 times/week. Tumor size was calculated with the equation: (length×width^2)/2.
Kaplan Meier curves were generated using Graph Pad software. The median survival for each group was 14, 13, 16, and 21.5 days for saline, atezolizumab, ABX and AA130, respectively. Survival differences between AA130 and all other groups were significant with p-values of 0.0008 for saline, 0.0015 for atezolizumab, and 0.0113 for Abraxane.

“atezolizumab: fully humanized, Fc-modified monoclonal antibody of IgG1 isotype against PD-L1” gave a pKd (ABX) of 8.84 and a median survival [1] of 13 days.
